Experimental data from patent publication US20250009808A1.

Biological target: rat RT1A class I histocompatibility antigen (rat (Rattus norvegicus)) (UniProt P16391)
Assay: heterogeneous rat liver cells incubated with antibody; cell count of retained versus flow-through fractions

Sequence of UniProt P16391 (P16391 25-371 limits assumed): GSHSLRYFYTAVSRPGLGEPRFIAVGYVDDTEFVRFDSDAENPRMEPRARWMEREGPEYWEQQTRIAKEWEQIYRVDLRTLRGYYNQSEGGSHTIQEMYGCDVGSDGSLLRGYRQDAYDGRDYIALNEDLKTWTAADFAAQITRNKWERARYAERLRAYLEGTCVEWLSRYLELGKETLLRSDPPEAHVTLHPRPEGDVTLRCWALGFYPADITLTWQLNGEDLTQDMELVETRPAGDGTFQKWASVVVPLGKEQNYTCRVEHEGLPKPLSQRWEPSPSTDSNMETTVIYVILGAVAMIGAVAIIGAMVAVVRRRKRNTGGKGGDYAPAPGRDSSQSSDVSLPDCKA

Row | percent of total cells in the population bound | Substance
1 | 60% | anti-RT1A monoclonal antibody IgG1 MRC clone OX-18
2 | > 60% | anti-RT1A monoclonal antibody IgG1 clone F16-4-4
3 | < 10% | anti-RT1A monoclonal antibody IgG2a MRC clone OX-27
